In publication PMC4474691, “Leukemia-Associated Mutations in Nucleophosmin Alter Recognition by CRM1: Molecular Basis of Aberrant Transport” (PLoS ONE, 2015) one finds Kd, dH and stoichiometry N data, which are given here for 6 substances.

The Kd is the equilibrium constant for the complex coming apart. Low values mean a tighter complex, high ones a looser complex. The stoichiometry N is the number of molecules, sites or subunits per partner or assembly.

The target in the experiment is CRM1^HA (high affinity mutant of CRM1) (UniProt Q6P5F9). Nature of the experiment: ITC; TFP-NES, YFP-NES or NES peptides at 35–180 μM titrated onto CRM1^HA at 2–14 μM; 20°C; 20 mM HEPES pH 7.4, 50 mM NaCl, 1 mM TCEP, 1 mM MgCl2; independent binding sites model.
Regarding TFP-mutA(NES) (domain or fragment), the Kd was found to be 2380 nM, the dH was -14.5 kcal/mol and the stoichiometry N was determined as 0.54.

TFP-mutE(NES) (domain or fragment) displayed a dissociation constant Kd of 1040 nM, a dH of -15.4 kcal/mol and a stoichiometry N of 0.8.

Substance YFP-PKI(NES) (domain or fragment) displayed a dissociation constant Kd of 18 nM, a dH of -13.7 kcal/mol and a stoichiometry N of 1.01.

In the case of “peptide AL (long NES motif of NPM mutant A, with Ile284)”, the dissociation constant Kd was found to be 57 nM, the dH was -18.1 kcal/mol and the stoichiometry N was found to be 0.33.

As for “peptide EL (long NES motif of NPM mutant E, with Ile284)”, the dissociation constant Kd came out at 31 nM, the dH is -19.8 kcal/mol and the stoichiometry N came to 0.51.

With “peptide ES (short NES motif of NPM mutant E)”, the Kd is 76 nM, the dH is -20.8 kcal/mol and the stoichiometry N was 0.4.
